Paper PMC7948647, “Region 4 of the RNA polymerase σ subunit counteracts pausing during initial transcription”

What was measured:
[1] = target: RNAP core from E. coli (EcoRNAP core) (E. coli) (UniProt P0A8V2)
[2] = target: RNAP core from E. coli (EcoRNAP core) (E. coli) (UniProt P0A8V2); remark: listed apart in the source
[3] = target: full-length σ^70 subunit of E. coli RNA polymerase (E. coli) (UniProt P00579)
[4] = target: RNA polymerase core (EcoRNAP) (Escherichia coli, UniProt P0A7Z4;P0A8V2;P0A8T7;P0A800 1-329;1-1342;1-1407;2-91); assay: pull-down (Ni-agarose RNA retention); 1 M NaCl wash; 40 mM HEPES pH 7.9, 5 mM MgCl2, 50 mM NaCl, 5% glycerol; binding to Ni-NTA at 18 C, washes with 250 mM NaCl (1 M for core controls), labeling at 22 C; conditions: protein: recombinant; tags: C-terminal 6xHis on rpoC; chain copies: 2;1;1;1; 9-bp downstream duplex, 10-nt 3' template overhang; 13-nt RNA with unpaired 5' end

Chain of RNAP core from E. coli (EcoRNAP core) (E. coli) (P0A8V2 whole entry, looked up): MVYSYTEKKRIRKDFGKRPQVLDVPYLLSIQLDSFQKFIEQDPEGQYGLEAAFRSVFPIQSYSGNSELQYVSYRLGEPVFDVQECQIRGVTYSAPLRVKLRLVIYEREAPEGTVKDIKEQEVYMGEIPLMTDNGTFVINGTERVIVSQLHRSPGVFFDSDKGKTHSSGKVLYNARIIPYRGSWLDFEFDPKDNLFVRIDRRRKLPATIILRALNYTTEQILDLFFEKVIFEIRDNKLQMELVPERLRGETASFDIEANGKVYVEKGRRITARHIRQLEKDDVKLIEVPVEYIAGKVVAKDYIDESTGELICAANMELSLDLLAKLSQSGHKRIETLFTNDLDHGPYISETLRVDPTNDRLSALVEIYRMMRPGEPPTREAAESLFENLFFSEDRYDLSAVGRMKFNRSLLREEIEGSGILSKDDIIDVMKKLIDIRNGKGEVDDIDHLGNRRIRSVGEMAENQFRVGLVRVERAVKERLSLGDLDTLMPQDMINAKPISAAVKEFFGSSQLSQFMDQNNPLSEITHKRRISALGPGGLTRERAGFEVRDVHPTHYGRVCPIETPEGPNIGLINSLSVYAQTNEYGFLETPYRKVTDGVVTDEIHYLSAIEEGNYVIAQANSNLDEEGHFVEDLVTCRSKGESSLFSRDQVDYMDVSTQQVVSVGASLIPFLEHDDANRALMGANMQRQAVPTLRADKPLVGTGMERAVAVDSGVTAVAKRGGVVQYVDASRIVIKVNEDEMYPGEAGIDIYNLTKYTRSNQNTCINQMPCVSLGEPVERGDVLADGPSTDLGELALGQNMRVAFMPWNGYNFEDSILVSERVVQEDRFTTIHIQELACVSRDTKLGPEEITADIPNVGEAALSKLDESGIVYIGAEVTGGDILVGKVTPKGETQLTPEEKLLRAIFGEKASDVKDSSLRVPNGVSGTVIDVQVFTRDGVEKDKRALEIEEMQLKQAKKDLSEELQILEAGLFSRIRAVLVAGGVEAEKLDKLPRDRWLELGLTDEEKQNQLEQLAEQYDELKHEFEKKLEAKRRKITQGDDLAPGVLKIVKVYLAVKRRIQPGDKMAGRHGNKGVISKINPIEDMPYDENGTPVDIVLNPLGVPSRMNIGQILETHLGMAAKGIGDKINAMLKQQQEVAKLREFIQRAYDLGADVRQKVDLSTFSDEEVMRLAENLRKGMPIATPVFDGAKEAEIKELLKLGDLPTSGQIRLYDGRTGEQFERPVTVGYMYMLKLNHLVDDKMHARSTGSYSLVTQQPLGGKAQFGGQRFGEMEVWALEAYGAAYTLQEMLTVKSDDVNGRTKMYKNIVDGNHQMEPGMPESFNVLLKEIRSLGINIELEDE
Chain of full-length σ^70 subunit of E. coli RNA polymerase (E. coli) (P00579 whole entry): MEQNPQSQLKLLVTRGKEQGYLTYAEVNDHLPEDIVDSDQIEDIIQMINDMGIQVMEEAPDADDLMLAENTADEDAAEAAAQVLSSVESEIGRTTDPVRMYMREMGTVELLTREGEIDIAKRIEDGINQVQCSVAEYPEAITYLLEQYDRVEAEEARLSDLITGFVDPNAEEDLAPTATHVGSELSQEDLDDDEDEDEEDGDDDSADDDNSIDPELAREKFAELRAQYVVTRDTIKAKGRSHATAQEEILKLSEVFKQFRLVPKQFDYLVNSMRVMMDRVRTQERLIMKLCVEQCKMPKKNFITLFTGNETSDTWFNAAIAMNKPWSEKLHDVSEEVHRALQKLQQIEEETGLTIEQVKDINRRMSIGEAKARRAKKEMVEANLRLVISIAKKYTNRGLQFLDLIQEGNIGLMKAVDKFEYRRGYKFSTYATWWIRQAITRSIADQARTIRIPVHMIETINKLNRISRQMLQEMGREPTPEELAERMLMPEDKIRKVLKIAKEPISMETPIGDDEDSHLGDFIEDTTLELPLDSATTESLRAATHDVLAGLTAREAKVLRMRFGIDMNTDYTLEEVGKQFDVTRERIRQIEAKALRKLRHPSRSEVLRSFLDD

Question: How did the translocation efficiency (fraction of 5-nt RNA) in extension of the 2-nt primer GpC on the LDT scaffold [1] turn out when “σΔ4 fragment of σ^70 (residues 1–529) (from UniProt P00579 1-529) (domain or fragment)” was run?
Answer: < 50%

Question: For “σ_(Δ3–4) fragment of σ^70 (residues 1–448) (from UniProt P00579 1-448) (domain or fragment)”, which translocation efficiency (fraction of 5-nt RNA) in extension of the 2-nt primer GpC on the LDT scaffold [1] is on record?
Answer: < 50%

Question: Which translocation efficiency (fraction of 5-nt RNA) in extension of the 2-nt primer GpC on the LDT scaffold; core alone about 40% [2] does the source give for “full-length σ^70 subunit of E. coli RNA polymerase (from UniProt P00579 1-613) (natural protein)” here?
Answer: 95%

Question: “σ_(Δ4.2) fragment of σ^70 (residues 1–553) (from UniProt P00579 1-553) (domain or fragment)” was tested. Which translocation efficiency (fraction of 5-nt RNA) in extension of the 2-nt primer GpC on the LDT scaffold [1] did it give?
Answer: < 50%

B1: T4 phage coactivator protein AsiA (natural protein)
chain: MNKNIDTVREIITVASILIKFSREDIVENRANFIAFLNEIGVTHEGRKLNQNSFRKIVSELTQEDKKTLIDEFNEGFEGVYRYLEMYTNK
Question: Which inhibition by 1 μM AsiA of abortive transcription by σ^70-EcoRNAP at the lacUV5 promoter (AsiA used to disrupt the pair σ4.2 of σ^70 and β-FTH of the core) [3] does the source give for B1 here?
Answer: 85%

Question: And the inhibition by 1 μM AsiA of de novo 3-nt RNA synthesis by σ^70-EcoRNAP on the SDT2 scaffold (AsiA used to disrupt the pair σ4.2 of σ^70 and β-FTH of the core) [3]?
Answer: 50%

B2: SDT scaffold + pRNA13 (mixed)
RNA: AAUUGUGAGCGGA
DNA 1: TGCAATTGTCATCCGCTCA
DNA 2: ACAATTGCA
Question: Does B2 bind [4]?
Answer: binds
